Measurements reported in patent US20130108623A1.

Legend:
[1] = target: FcγRIIa (H) variant (UniProt P12318); assay: in vitro binding, method not stated for the single mutant
[2] = target: FcγRIIb (UniProt P31994); assay: as above
Sequence of UniProt P31994 (P31994 43-217 limits assumed): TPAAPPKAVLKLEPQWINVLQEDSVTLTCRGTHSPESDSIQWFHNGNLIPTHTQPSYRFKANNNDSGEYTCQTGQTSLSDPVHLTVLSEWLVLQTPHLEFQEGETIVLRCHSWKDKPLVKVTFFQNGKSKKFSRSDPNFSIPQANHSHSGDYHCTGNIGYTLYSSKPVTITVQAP

Sequence of UniProt P12318 (P12318 34-217 limits assumed, change not shown): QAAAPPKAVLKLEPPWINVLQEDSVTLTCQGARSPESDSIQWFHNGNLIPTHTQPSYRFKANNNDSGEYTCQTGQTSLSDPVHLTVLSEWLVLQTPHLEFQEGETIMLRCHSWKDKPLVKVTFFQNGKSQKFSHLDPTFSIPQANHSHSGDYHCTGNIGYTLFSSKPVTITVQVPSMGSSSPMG

## Fc variant D270N (single mutation) (antibody)
[1]
  fold reduction of binding against wild type: 100 fold
[2]
  fold reduction of binding against wild type: 100 fold

## Fc variant K326E (single mutation) (antibody)
[2]
  fold improvement of binding against wild type: 4 fold
